Broadly, the t½ is the time needed for the level to fall by half in the phase considered. The term koff denotes a measure of how fast the partners let go of each other. The term kon denotes the second-order rate constant of association.

The text below walks through data of patent publication US20260116946A1, “NOVEL CD200 FUSION PROTEINS” (DUCENTIS BIOTHERAPEUTICS LIMITED, priority 2022, published 2026).

The target in test [1] is Recombinant Human CD200R, His-tagged (Creative Biomart CD200R1-320H) (human) (UniProt Q8TD46). Briefly: SPR (BIAcore T200), CD200-Fc captured on anti-human Fc, human CD200R in solution, 25 C. (SPR reads the build-up and loss of mass on a sensor chip optically.)
Sequence of Recombinant Human CD200R, His-tagged (Creative Biomart CD200R1-320H) (human) (Q8TD46 27-266 limits assumed): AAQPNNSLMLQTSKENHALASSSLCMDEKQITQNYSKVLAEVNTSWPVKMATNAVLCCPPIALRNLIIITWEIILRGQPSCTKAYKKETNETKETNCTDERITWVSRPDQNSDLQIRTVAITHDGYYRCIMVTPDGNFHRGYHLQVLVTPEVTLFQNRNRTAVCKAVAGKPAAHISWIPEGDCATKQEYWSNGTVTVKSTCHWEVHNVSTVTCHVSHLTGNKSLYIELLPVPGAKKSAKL
In test [2] the target is Recombinant Cyno CD200R, His-tagged (Creative Biomart CD200R1-3483C) (cynomolgus) (UniProt G7NZT0). Description: SPR (BIAcore T200), CD200-Fc captured on anti-human Fc, cyno CD200R in solution, 25 C, mean of two runs.
For test [3] the target is unchanged. Briefly: SPR (BIAcore), DS-155 captured via anti-human Fc, CynoCD200R1 as analyte, DRC = 1000 nM to 62.5 nM (5 curves), 25 °C, 1:1 Binding fit; Run 1.
In test [4] the target is Recombinant Human CD200R, His-tagged (Creative Biomart CD200R1-320H) (human) (UniProt Q8TD46). Description: SPR (BIAcore), DS-155 captured via anti-human Fc, HuCD200R1 as analyte, DRC = 500 nM to 31.25 nM (5 curves), 25 °C, 1:1 Binding fit; Run 2.
The target in test [5] is Recombinant Cyno CD200R, His-tagged (Creative Biomart CD200R1-3483C) (cynomolgus) (UniProt G7NZT0). Description: SPR (BIAcore), DS-155 captured via anti-human Fc, CynoCD200R1 as analyte, DRC = 1000 nM to 62.5 nM (5 curves), 25 °C, 1:1 Binding fit; Run 2.
Test [6] has as its target Recombinant Human CD200R, His-tagged (Creative Biomart CD200R1-320H) (human) (UniProt Q8TD46). Briefly: SPR (BIAcore), DS-155 captured via anti-human Fc, HuCD200R1 as analyte, DRC = 500 nM to 31.25 nM (5 curves), 25 °C, 1:1 Binding fit; Run 1.
The target in test [7] is Recombinant Cyno CD200R, His-tagged (Creative Biomart CD200R1-3483C) (cynomolgus) (UniProt G7NZT0). Description: SPR (BIAcore T200), CD200-Fc captured on anti-human Fc, cyno CD200R in solution, 25 C.
The target in test [8] is Recombinant Human CD200R, His-tagged (Creative Biomart CD200R1-320H) (human) (UniProt Q8TD46). Description: SPR (BIAcore T200), CD200-Fc captured on anti-human Fc, human CD200R in solution, 25 C, mean of two runs.
Test [9] has the same target. Description: not described (affinity label of the construct for CD200R).
The target in test [10] is T1, muCD200R-Fc (Creative Biomart CD200R1-458M) (mouse, UniProt Q9ES57 26-238).
T1 construct: Bought reagent; also called captured CD200R; not shown: Fc part of the bought fusion; captured on anti-human IgG Fc
T1 sequence (looked up): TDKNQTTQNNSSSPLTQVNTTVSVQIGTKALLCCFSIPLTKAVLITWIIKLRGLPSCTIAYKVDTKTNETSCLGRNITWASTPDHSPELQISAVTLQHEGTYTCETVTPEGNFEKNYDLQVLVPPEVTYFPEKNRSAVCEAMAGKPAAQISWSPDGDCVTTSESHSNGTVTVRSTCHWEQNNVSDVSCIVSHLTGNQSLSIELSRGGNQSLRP
Briefly: SPR, muCD200R-Fc captured on anti-human IgG Fc, CD200 monomers in solution. Here is the method: For human CD200 constructs: anti-human Fc (GE Healthcare) was covalently immobilized on a BIAcore CM5 sensor chip (Cytiva, BR100530) by amine coupling using a Cytiva kit (BR100839) following the manufacturer's instructions, targeting immobilization of 8,000-11,000 RU. CD200-Fc proteins were diluted to 0.5 μg/mL to 4 μg/mL in running Buffer (1×HBS-EP+pH7.4 (Cytiva BR100669), HEPES Buffered Saline pH 7.4 containing 3 mM EDTA and 0.05% v/v Surfactant P20) and flowed for 25 to 100 seconds at […] over the immobilized Anti-Human IgG Fc, with a stabilization time of 60 seconds. Between 35 and 250 RUs of CD200-Fc were captured, with higher RUs used for cynomolgus CD200R binding experiments. […] Analysis temperature was 25° C. This was followed by regeneration of the surface with 30-90 second pulse of 3M MgCl₂ flowed at 30 μL/min flow rate followed by stabilization of the surface with 60 second flow of running buffer.
(§1) For mouse CD200 constructs, muCD200R-Fc (Creative Biomart CD200R1-458M) diluted to 1 μg/mL in running buffer was flowed over the immobilized Anti-Human IgG Fc, with CD200 monomers serially diluted and flowed over captured CD200R. Other details were as above. Data analysis: experimental sensorgrams were analyzed in BIAevaluation software (GE Healthcare). The curves obtained were fitted to 1:1 Langmuir binding model by setting Rmax and RI as local parameters. Rate equations using standard parameters (e.g. ligand concentration, time) were used for iterative curve fitting. Closeness of fit was determined by algorithms provided by the manufacturer in the BIAevaluation software, and data accepted if the Chi² value was less than 10% of Rₘₐₓ, and the U value was less than or equal to 15.

The target in the next test is T2, muCD200R-Fc (Mus musculus, UniProt Q9ES57).
T2 construct: purchased Creative Biomart CD200R1-458M
T2 sequence (Q9ES57 26-238 limits assumed): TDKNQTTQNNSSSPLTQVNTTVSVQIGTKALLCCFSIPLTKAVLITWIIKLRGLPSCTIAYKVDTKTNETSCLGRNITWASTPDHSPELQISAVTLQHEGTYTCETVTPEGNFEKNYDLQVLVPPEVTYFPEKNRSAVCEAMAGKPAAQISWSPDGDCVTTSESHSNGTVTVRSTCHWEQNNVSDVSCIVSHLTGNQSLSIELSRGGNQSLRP
Description: BIAcore SPR binding of murine CD200 variants to muCD200R-Fc. The method, then:
as §1, with “Chi^2” for “Chi²”, “Rmax,” for “Rₘₐₓ,”
Murine CD200 constructs used Uniprot sequence O54901, containing the signal peptide and extracellular domains. Mutation numbers refer to the full Uniprot sequences including signal peptide.
Proteins were generated by transient transfection of pcDNA 3.1-based expression plasmids into CHO-3E7 cells using Polyethyleneimine (PEI). 24 hours post transfection, cultures were shifted to 32° C., fed with 10% feed C, glutamine, glucose and […] Sodium butyrate; supernatants were harvested and filtered at day 7. Purification was performed at 4° C. using MabSelect SuRe 5 ml affinity columns (Cytiva), pre-equilibrated with 50 mM Sodium Phosphate, 150 mM NaCl PH 7.4, at a flowrate of 3 mL/min on a AKTA Pure platform. The column was washed with equilibration buffer and bound protein eluted using 20 mM sodium acetate, 150 mM NaCl pH 3.5. Elutes were neutralized with 10% v/v 1 M Tris pH 8.0 and analysed by SDS-PAGE. Pooled fractions were concentrated to 5 mL and subjected to gel-filtration chromatography (Hiload 16/600 Superdex-200 pg column) on a AKTA Pure platform. The protein was processed in 50 mM Sodium Phosphate, 150 mM NaCl pH 7.4 buffer system at 1.2 mL/min. Fractions containing protein were pooled and concentrated using an Amicon Ultra Centricon (10 kDa molecular weight cut-off) to 1.33 mg/mL (measured at UV 280 nm). The purified material was subjected to SEC-HPLC, LC-MS and EndoSafe LAL cartridge test to assess protein purity, molecular mass and endotoxin content, respectively. Mouse CD200-his proteins were purified with Ni-NTA agarose resin using standard methodology. All proteins were stored at −80° C.

In another test the test system is male DBA/1J mice. Description: Mouse collagen-induced arthritis (CIA) model, preventative dosing. The format is in vivo. The conditions noted are these: 3 mg/kg once every 3 days, day 22 to 36; scores day 25-36. The method, then:
Wild type (DS-198) and higher affinity (DS-227) murine CD200-Fc proteins were tested using a CIA model by initiating dosing just prior to symptom onset. Arthritis was induced in male DBA/1J mice by intradermal injection of bovine type II collagen in CFA (complete Freund's adjuvant) on day 1, followed by a booster injection in incomplete Freund's adjuvant on day 21. […] Clinical scores of paw arthritis (blinded assessment) were measured from day 25-36 on alternate days. The data in FIG. 9 are shown as Mean±SEM. **p<0.01; ***p<0.001 vs Disease+Dexa, Disease+DS-198, & Disease+DS-227. Two-way RM ANOVA followed by Tukey's multiple comparisons test.

Where [11] appears, read: murine CD200, stated in text, read-out: binding affinity.

Read-outs that look alike come from different tables or passages of the source.

Take “DS-155 (wild-type human CD200-Fc, IgG4 S228P) (from UniProt P41217 31-232; P01861 99-327) (Fc fusion)”: the t½ in test [1] turned out to be 21 s; in test [7], 12 s. Besides, the Kd stood at 971 nM in test [2]; 888 nM in [3]; 183 nM in test [4]; 1050 nM in test [5]; 174 nM in [6]; 179 nM in test [8]. Also, the koff in [2] worked out at 0.0586 s⁻¹; in test [3] it was 0.0564 s⁻¹; in test [4], 0.0329 s⁻¹; in test [5], 0.0608 s⁻¹; in [6] it was 0.0324 s⁻¹; in test [8], 0.0326 s⁻¹. For the same molecule, the kon in [2] stood at 60600 M⁻¹ s⁻¹; in [3], 63500 M⁻¹ s⁻¹; in [4] it was 180000 M⁻¹ s⁻¹; in test [5] it was 57600 M⁻¹ s⁻¹; in test [6], 186000 M⁻¹ s⁻¹; in test [8], 183000 M⁻¹ s⁻¹.

As for “DS-192 (human CD200 K130Y - IgG4 S228P Fc) (from UniProt P41217 31-232; P01861 99-327) (Fc fusion)”, the Kd in [9] amounted to 13 nM.

B1: murine CD200 wild type (Table 7 'wt') (ligand, mouse, UniProt O54901 31-232, looked up)
chain: QVEVVTQDERKALHTTASLRCSLKTSQEPLIVTWQKKKAVSPENMVTYSKTHGVVIQPAYKDRINVTELGLWNSSITFWNTTLEDEGCYMCLFNTFGSQKVSGTACLTLYVQPIVHLHYNYFEDHLNITCSATARPAPAISWKGTGTGIENSTESHFHSNGTTSVTSILRVKDPKTQVGKEVICQVLYLGNVIDYKQSLDKG
notes: extracellular domain; The Fc fusion with the same CD200 part is DS-198 (muIgG2a); also called mouse CD200-his; CD200 monomer
Take B1: the “T1/2” value in test [10] amounted to 17.3 s.

B2: DS-227: high affinity murine CD200-Fc, CD200 H82Y, T125I, muIgG2a Fc (protein)
chain: QVEVVTQDERKALHTTASLRCSLKTSQEPLIVTWQKKKAVSPENMVTYSKTYGVVIQPAYKDRINVTELGLWNSSITFWNTTLEDEGCYMCLFNIFGSQKVSGTACLTLYVQPIVHLHYNYFEDHLNITCSATARPAPAISWKGTGTGIENSTESHFHSNGTTSVTSILRVKDPKTQVGKEVICQVLYLGNVIDYKQSLDKG
modifications: left off: small tags and cut ends
Consider B2, for which the Kd with muCD200R-Fc (setting [11]) was 43 nM. Also, in the test on male DBA/1J mice, the “clinical score of paw arthritis” value is “significantly more potent in reducing clinical score than wild type (DS-198)”.

B3: H82Y, T125I: murine CD200 combination variant H82Y, T125I of Table 7 (protein)
chain: QVEVVTQDERKALHTTASLRCSLKTSQEPLIVTWQKKKAVSPENMVTYSKTYGVVIQPAYKDRINVTELGLWNSSITFWNTTLEDEGCYMCLFNIFGSQKVSGTACLTLYVQPIVHLHYNYFEDHLNITCSATARPAPAISWKGTGTGIENSTESHFHSNGTTSVTSILRVKDPKTQVGKEVICQVLYLGNVIDYKQSLDKG
As to B3, the Kd with muCD200R-Fc (setting [11]) amounted to 43 nM; in the test with muCD200R-Fc (murine CD200 variants, table head prints no unit, nM, read-out: KD), 43.3 ± 4.9 nM. Moreover, the “fold higher binding affinity than wild type” value with muCD200R-Fc (versus wild type murine CD200) is given as “approximately 14 fold”.

B4: murine CD200 H82Y, T125I (Table 7 combination variant) (ligand, mouse, UniProt O54901 31-232, looked up)
chain: QVEVVTQDERKALHTTASLRCSLKTSQEPLIVTWQKKKAVSPENMVTYSKTYGVVIQPAYKDRINVTELGLWNSSITFWNTTLEDEGCYMCLFNIFGSQKVSGTACLTLYVQPIVHLHYNYFEDHLNITCSATARPAPAISWKGTGTGIENSTESHFHSNGTTSVTSILRVKDPKTQVGKEVICQVLYLGNVIDYKQSLDKG
notes: extracellular domain; The Fc fusion with the same mutations is DS-227 (muIgG2a, called '43 nM muCD200-Fc'); also called combination variant H82Y, T1251; mouse CD200-his
As for B4, in test [10], the “T1/2” value worked out at 118 s and the “fold higher binding affinity than wild type” value was about 14 fold.
